Key:
Assay in all cases: cell-based or functional assay
[1] = target: Bee venom (Apis melifera) PLA2 (Apis mellifera) (UniProt P00630)
[2] = target: daboiatoxin, the major PLA2 toxin of Daboia russelli siamensis venom (Daboia russelli siamensis)
[3] = target: Taipoxin (Oxyuranus scutellatus PLA2) (Oxyuranus scutellatus) (UniProt P00614)
Chain of Taipoxin (Oxyuranus scutellatus PLA2) (Oxyuranus scutellatus) (P00614 whole entry, chain 1 of 3): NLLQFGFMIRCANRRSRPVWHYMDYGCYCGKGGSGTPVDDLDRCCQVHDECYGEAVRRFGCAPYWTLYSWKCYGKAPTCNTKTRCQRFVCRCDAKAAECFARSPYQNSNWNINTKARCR
Chain of Taipoxin (Oxyuranus scutellatus PLA2) (Oxyuranus scutellatus) (P00615 28-145, chain 2 of 3, further chain): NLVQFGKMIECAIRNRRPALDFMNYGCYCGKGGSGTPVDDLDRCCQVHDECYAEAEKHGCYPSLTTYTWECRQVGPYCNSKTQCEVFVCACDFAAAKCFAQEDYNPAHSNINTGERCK
Chain of Taipoxin (Oxyuranus scutellatus PLA2) (Oxyuranus scutellatus) (P00616 20-152, chain 3 of 3, further chain): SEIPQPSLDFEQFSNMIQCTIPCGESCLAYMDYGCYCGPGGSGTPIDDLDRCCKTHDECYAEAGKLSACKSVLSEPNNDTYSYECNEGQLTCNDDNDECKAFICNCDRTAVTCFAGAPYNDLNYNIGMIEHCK

Chain of recombinant Python Antitoxic Factor (PAF), later renamed Phospholipase Inhibitor from Python (PIP), (Q9I8P7 20-201): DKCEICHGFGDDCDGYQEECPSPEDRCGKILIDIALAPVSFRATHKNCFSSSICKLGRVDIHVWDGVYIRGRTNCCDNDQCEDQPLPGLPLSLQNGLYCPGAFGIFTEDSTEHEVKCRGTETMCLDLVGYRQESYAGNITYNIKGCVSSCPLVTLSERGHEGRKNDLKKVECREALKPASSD
Chain of Bee venom (Apis melifera) PLA2 (Apis mellifera) (P00630 34-167): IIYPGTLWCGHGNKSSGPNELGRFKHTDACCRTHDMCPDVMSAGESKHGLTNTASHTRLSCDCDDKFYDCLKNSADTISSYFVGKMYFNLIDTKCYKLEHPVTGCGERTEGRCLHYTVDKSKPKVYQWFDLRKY

Substance anti-inflammatory peptide-2 from Sigma has a % Inhibition of paw oedema; Bee venom PLA2 (1 µg) + 100 µg AIP-2 [1] of 33.6% and a % Inhibition of paw oedema; DbTx (1 µg) + 100 µg AIP-2 [2] of 35.3%.

Work on “recombinant Python Antitoxic Factor (PAF), later renamed Phospholipase Inhibitor from Python (PIP), (from UniProt Q9I8P7 20-201)” yielded a % Inhibition of paw oedema; Bee venom PLA2 (1 µg) + 50 µg PIP [1] of 39.9%, a % Inhibition of paw oedema; Bee venom PLA2 (1 µg) + 100 µg PIP [1] of 78.1% and a % Neutralisation [3] of 50%. The % Inhibition of paw oedema; DbTx (1 µg) + 50 µg PIP [2] was 89.2% and the % Inhibition of paw oedema; DbTx (1 µg) + 100 µg PIP [2] was 92.2%.
